The data set deals with GluR2Qflip AMPA receptor (homomeric channel) (UniProt P19491-2 P19491-2:22-883). The data set is described as follows: inhibition; intrinsic KI, whole-cell current, competitive; pH 7.4, 22 C, -60 mV. To be noted: tags: expressed in HEK-293S cells (co-transfected with GFP and SV40 large T antigen); chain copies: 4. As for the experimental part: Glutamate, a natural neurotransmitter, was used as the activating ligand, and the resulting receptor response in a single cell was recorded. Recording electrodes were made from glass capillary pipettes and fire polished. The electrode resistance was ˜3M Ω when filled with the electrode solution. The electrode solution contained 110 mM CsF, 30 mM CsCl, 4 mM MaCl, 0.5 mM CaCl₂, 5 mM EGTA, and 10 mM Hepes (pH 7.4 adjusted by CsOH). The external bath solution contained 150 mM NaCl, 3 mM KCl, 1 mM CaCl₂, 1 mM MgCl₂ and 10 mM Hepes (pH7.4 adjusted by NaOH). The GFP fluorescence in transfected cells was visualized using an Axiovert S100 microscope with a fluorescent detection system from Carl Zeiss (Thornwood, N.Y.). The whole-cell current was recorded using an Axonpatch-200B amplifier at a cutoff frequency of 2-20 kHz by a built-in eight-pole Bessel filter and digitized at 5-50 kHz sampling frequency using a Digidata 1322A from Axon Instruments (Union City, Calif.). The data acquisition software was pCLAMP 8, also from Axon Instruments.
The present invention relates to the discovery and characterization of a group of water-soluble AMPA receptor inhibitors, which are RNA aptamers that can fold into unique three-dimensional structures that confer high affinity and specificity against biological targets. […]

Sequence of GluR2Qflip AMPA receptor (homomeric channel) (P19491 other isoform, or with tags, fused parts or gaps): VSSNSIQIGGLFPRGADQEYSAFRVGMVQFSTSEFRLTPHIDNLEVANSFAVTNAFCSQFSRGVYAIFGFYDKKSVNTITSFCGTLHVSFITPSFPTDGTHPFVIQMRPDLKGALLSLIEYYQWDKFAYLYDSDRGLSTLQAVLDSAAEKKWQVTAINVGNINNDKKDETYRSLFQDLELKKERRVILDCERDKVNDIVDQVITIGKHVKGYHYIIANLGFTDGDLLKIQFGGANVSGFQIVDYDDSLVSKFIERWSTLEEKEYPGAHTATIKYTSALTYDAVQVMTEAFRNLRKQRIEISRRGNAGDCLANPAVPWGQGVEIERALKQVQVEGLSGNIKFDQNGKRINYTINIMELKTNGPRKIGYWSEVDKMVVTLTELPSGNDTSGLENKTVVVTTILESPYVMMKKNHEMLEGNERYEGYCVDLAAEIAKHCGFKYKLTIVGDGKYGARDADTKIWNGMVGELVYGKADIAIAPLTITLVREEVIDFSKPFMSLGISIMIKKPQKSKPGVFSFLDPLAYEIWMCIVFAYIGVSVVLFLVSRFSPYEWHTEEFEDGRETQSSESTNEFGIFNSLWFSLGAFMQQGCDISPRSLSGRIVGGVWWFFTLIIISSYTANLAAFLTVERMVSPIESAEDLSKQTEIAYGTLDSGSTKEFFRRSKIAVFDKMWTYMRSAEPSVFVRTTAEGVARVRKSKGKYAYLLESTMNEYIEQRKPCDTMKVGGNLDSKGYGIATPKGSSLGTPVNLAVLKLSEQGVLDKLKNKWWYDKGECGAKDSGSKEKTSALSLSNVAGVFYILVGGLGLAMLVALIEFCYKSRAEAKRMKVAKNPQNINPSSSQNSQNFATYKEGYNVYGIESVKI

B1: AN57 (57-nt minimal aptamer, M1+M2 mixture) (ssRNA)
RNA: GGGCGAAUUCACUGCCAUCUAGGCAGUAACCAGGAGUUAGUAGGACAAGUUUCGUCC
By Ki is commonly meant the dissociation constant of the complex between target and ligand, obtained from inhibition or displacement. Take B1: the Ki turned out to be 133 nM.

The values are drawn from patent US20060148746, “Nucleic acid inhibitors of glutamate receptors” (published 2006).
